Results published in patent US12312641B2, “Sensitivity marker for antibody-drug conjugate” (priority 2018, dated 2025).

How the values were obtained:
[1] = system: patient-derived xenograft (PDX) model; test: Anti-tumor effect (TGI) in patient-derived xenograft models, 21 days after administration; type: in vivo, nu/nu mice; details: for TGI (%): 10 mg/kg tail vein, 21 days after administration; for Proportion of PDX models showing TGI of 75% or more: TGI at 21 days
Protocol: Mice: Female nu/nu mice (Envigo) aged 5-8 weeks were acclimatized under SPF conditions for 3 days or more prior to experimental use. Mice were fed with sterile solid feed (Teklad2919, Envigo) and given reverse osmosis membrane-treated water (containing 2 ppm chlorine).
Measurements and Calculation formula: long and short diameters of tumors were measured twice a week with an electronic digital caliper (CD-6PMX, Mitutoyo Corp.) and tumor volume (mm^3) was calculated using the following calculation formula: Tumor volume (mm^3)=0.52×Long diameter (mm)×[Short diameter (mm)]^2
Tumor fragments from each cancer patient were subcutaneously implanted into mice and passaged. The obtained tumors were used to subcutaneously implant tumor fragments, which were cut to approximately 5×5×5 mm^3, into the left abdomen of the female nu/nu mice, thereby each patient-derived xenograft (PDX) model was created. Mice were randomly grouped when the mean transplanted tumor volume reached 150 to 300 mm^3 (Day 0). On the same day as grouping, the antibody-drug conjugate (1) was administered into the tail vein at a dose of 10 mg/kg. A formulation buffer was similarly administered at a volume of 10 mL/kg as a negative control. Tumor growth inhibition rates (TGI (%)) were calculated according to the following calculation formula using each tumor volume 21 days after administration (Table 1). Tumor growth inhibition rate (%)=100×(1−Tf/mean Cf) • Tf: tumor volume 21 days after administration of antibody-drug conjugate (1) • mean Cf: arithmetic mean tumor volume 21 days after administration in negative control group mice
Data on the amount of gene expression in each PDX model used in Example 2 were obtained and normalized at Champions Oncology, Inc., thereby a RPKM value was obtained. To the RPKM value, 1 was added, and the sum was transformed to a logarithmic (log2) to obtain a log2[RPKM+1] value (Table 2). The log2[RPKM+1] value was used to analyze the relationship between the anti-tumor activity of antibody-drug conjugate (1) in each PDX model (Table 1) and the amount of expression of the hTROP2 gene and the SLFN11 gene. […] When TGI was 80% or more, the prediction rate decreased to an order of 60% only when the log2[RPKM+1] value of the hTROP2 gene exceeded 7.5 and the log2[RPKM+1] value of the SLFN11 gene exceeded 1.0 and was less than or equal to 2.

[2] = system: relapsed and advanced non-small cell lung cancer; test: Phase 1 study, dose escalation part, maximum tumor change rate; type: in vivo, human
Protocol: In a dose escalation part of a Phase 1 study for patients with relapsed and advanced non-small cell lung cancer, the antibody-drug conjugate (1) was administered intravenously once every three weeks until unacceptable toxicity or worsening of the pathological condition was observed. The dose-limiting toxicity was determined in Cycle 1 (Days 1-21). Tumor sampling was performed after entry into the clinical study following the first dose. Note that a minus value in the maximum tumor change rate means that the tumor has been reduced by administration of antibody-drug conjugate (1).
Gene expression data of each patient were obtained by EdgeSeq after preparing a section from a formalin-fixed paraffin-embedded specimen of tumor tissue of each patient prior to antibody-drug conjugate (1) administration, and cutting out a tumor site by laser microdissection. The obtained count data were normalized by the Median normalization method, thereby the amount of expression of each gene was obtained. All the above tests were performed at HTG Molecular Diagnostics, Inc.
To the Median Normalized Count (MNC) value, after being obtained and normalized at HTG Molecular Diagnostics, Inc., 1 was added, and the sum was transformed to a logarithmic (log2) to obtain a log2[MNC+1] value (Table 15). The log2[MNC+1] value was used to analyze the relationship between the anti-tumor activity of antibody-drug conjugate (1) in each patient (Table 14) and the amount of expression of the hTROP2 gene and the SLFN11 gene. When all of the evaluated patients were grouped into groups having at least a certain amount of expression of the hTROP2 and SLFN11 genes (Table 16), it was shown that the proportion of patients showing at least a certain drug efficacy (maximum tumor change rate of 0% or less) is higher as the hTROP2 gene expression and the SLFN11 gene expression increases (Table 17). In the absence of grouping by SLFN11 gene expression, the proportion of patients showing the maximum tumor change rate of 0% or less was not more than 75 to 80%. […] For example, when the log2[MNC+1] value of the hTROP2 gene exceeds 12 and the log2[MNC+1] value of the SLFN11 gene exceeds 11.5, the proportion of patients in which the maximum tumor change rate is 0% or less is about 80% to 100%.

B1: antibody-drug conjugate (1): humanized anti-hTROP2 antibody (SEQ ID NO: 1 residues 20-470, SEQ ID NO: 2 residues 21-234) conjugated to the exatecan-derivative drug-linker via a thioether bond (conjugate, chains of the INN, looked up)
VH: QVQLVQSGAEVKKPGASVKVSCKASGYTFTTAGMQWVRQAPGQGLEWMGWINTHSGVPKYAEDFKGRVTISADTSTSTAYLQLSSLKSEDTAVYYCARSGFGSSYWYFDVWGQGTLVTVSS
VL: DIQMTQSPSSLSASVGDRVTITCKASQDVSTAVAWYQQKPGKAPKLLIYSASYRYTGVPSRFSGSGSGTDFTLTISSLQPEDFAVYYCQQHYITPLTFGQGTKLEIK
modifications: exatecan-derivative drug-linker
[1]; PDX model #1, Breast
  TGI (%): 98.1%
[1]; PDX model #2, Lung
  TGI (%): 77.3%
[1]; PDX model #3, Cholangiocarcinoma
  TGI (%): 48.0%
[1]; PDX model #4, Pancreatic
  TGI (%): 48.5%
[1]; PDX model #5, Colorectal
  TGI (%): 65.0%
[1]; PDX model #6, Breast
  TGI (%): 95.5%
[1]; PDX model #7, Breast
  TGI (%): 94.7%
[1]; PDX model #8, Head and neck
  TGI (%): 55.6%
[1]; PDX model #9, Head and neck
  TGI (%): 99.1%
[1]; PDX model #10, Lung
  TGI (%): 97.7%
[1]; PDX model #11, Lung
  TGI (%): 95.4%
[1]; PDX model #12, Breast
  TGI (%): 95.8%
[1]; PDX model #13, Lung
  TGI (%): 70.0%
[1]; PDX model #14, Breast
  TGI (%): 90.1%
[1]; PDX model #15, Cholangiocarcinoma
  TGI (%): 61.2%
[1]; PDX model #16, Colorectal
  TGI (%): 52.7%
[1]; PDX model #17, Breast
  TGI (%): 62.6%
[1]; PDX model #18, Lung
  TGI (%): 18.4%
[1]; PDX model #19, Lung
  TGI (%): 50.3%
[1]; log2[RPKM+1]: hTROP2 >6.5, SLFN11 >1, 10 models
  Proportion of PDX models showing TGI of 75% or more: 60%
[1]; log2[RPKM+1]: hTROP2 >6.5, SLFN11 >2, 6 models
  Proportion of PDX models showing TGI of 75% or more: 83%
[1]; log2[RPKM+1]: hTROP2 >6.5, SLFN11 >3, 3 models
  Proportion of PDX models showing TGI of 75% or more: 100%
[1]; log2[RPKM+1]: hTROP2 >6.5, SLFN11 All models, 15 models
  Proportion of PDX models showing TGI of 75% or more: 47%
[1]; log2[RPKM+1]: hTROP2 >7.0, SLFN11 >1, 9 models
  Proportion of PDX models showing TGI of 75% or more: 67%
[1]; log2[RPKM+1]: hTROP2 >7.0, SLFN11 >2, 6 models
  Proportion of PDX models showing TGI of 75% or more: 83%
[1]; log2[RPKM+1]: hTROP2 >7.0, SLFN11 >3, 3 models
  Proportion of PDX models showing TGI of 75% or more: 100%
[1]; log2[RPKM+1]: hTROP2 >7.0, SLFN11 All models, 11 models
  Proportion of PDX models showing TGI of 75% or more: 55%
[1]; log2[RPKM+1]: hTROP2 >7.5, SLFN11 >1, 6 models
  Proportion of PDX models showing TGI of 75% or more: 83%
[1]; log2[RPKM+1]: hTROP2 >7.5, SLFN11 >2, 4 models
  Proportion of PDX models showing TGI of 75% or more: 100%
[1]; log2[RPKM+1]: hTROP2 >7.5, SLFN11 >3, 2 models
  Proportion of PDX models showing TGI of 75% or more: 100%
[1]; log2[RPKM+1]: hTROP2 >7.5, SLFN11 All models, 8 models
  Proportion of PDX models showing TGI of 75% or more: 63%
[1]; log2[RPKM+1]: hTROP2 >8.0, SLFN11 >1, 5 models
  Proportion of PDX models showing TGI of 75% or more: 80%
[1]; log2[RPKM+1]: hTROP2 >8.0, SLFN11 >2, 3 models
  Proportion of PDX models showing TGI of 75% or more: 100%
[1]; log2[RPKM+1]: hTROP2 >8.0, SLFN11 >3, 2 models
  Proportion of PDX models showing TGI of 75% or more: 100%
[1]; log2[RPKM+1]: hTROP2 >8.0, SLFN11 All models, 7 models
  Proportion of PDX models showing TGI of 75% or more: 57%
[1]; log2[RPKM+1]: hTROP2 All models, SLFN11 >1, 13 models
  Proportion of PDX models showing TGI of 75% or more: 54%
[1]; log2[RPKM+1]: hTROP2 All models, SLFN11 >2, 9 models
  Proportion of PDX models showing TGI of 75% or more: 67%
[1]; log2[RPKM+1]: hTROP2 All models, SLFN11 >3, 5 models
  Proportion of PDX models showing TGI of 75% or more: 80%
[1]; log2[RPKM+1]: hTROP2 All models, SLFN11 All models, 19 models
  Proportion of PDX models showing TGI of 75% or more: 47%
[1]; log2[RPKM+1]: hTROP2 exceeded 7.5 and SLFN11 exceeded 1.0 and less than or equal to 2
  Prediction rate when TGI was 80% or more: ~60%
[1]; log2[RPKM+1]: hTROP2 exceeds 7.5 and SLFN11 exceeds 2.0, or hTROP2 exceeds 6.5 and SLFN11 exceeds 3.0
  Proportion of animal models showing TGI of 75% or more: 100%
[2]; Patient #1, 2 mg/kg intravenously once every three weeks
  Maximum tumor change rate (%): −7.14%
[2]; Patient #2, 2 mg/kg intravenously once every three weeks
  Maximum tumor change rate (%): −68.52%
[2]; Patient #3, 2 mg/kg intravenously once every three weeks
  Maximum tumor change rate (%): −4.76%
[2]; Patient #4, 2 mg/kg intravenously once every three weeks
  Maximum tumor change rate (%): −11.70%
[2]; Patient #5, 2 mg/kg intravenously once every three weeks
  Maximum tumor change rate (%): 52.00%
[2]; Patient #6, 2 mg/kg intravenously once every three weeks
  Maximum tumor change rate (%): 3.15%
[2]; Patient #7, 4 mg/kg intravenously once every three weeks
  Maximum tumor change rate (%): 33.33%
[2]; Patient #8, 4 mg/kg intravenously once every three weeks
  Maximum tumor change rate (%): −53.13%
[2]; Patient #9, 6 mg/kg intravenously once every three weeks
  Maximum tumor change rate (%): −52.27%
[2]; Patient #10, 8 mg/kg intravenously once every three weeks
  Maximum tumor change rate (%): −3.47%
[2]; Patient #11, 8 mg/kg intravenously once every three weeks
  Maximum tumor change rate (%): −35.46%
[2]; Patient #12, 8 mg/kg intravenously once every three weeks
  Maximum tumor change rate (%): −63.64%
[2]; log2[MNC+1]: hTROP2 >12, SLFN11 >11.5, 8 patients
  Proportion of patients showing a maximum tumor change rate of 0% or less: 88%
[2]; log2[MNC+1]: hTROP2 >12, SLFN11 >12.5, 4 patients
  Proportion of patients showing a maximum tumor change rate of 0% or less: 100%
[2]; log2[MNC+1]: hTROP2 >12, SLFN11 All, 9 patients
  Proportion of patients showing a maximum tumor change rate of 0% or less: 78%
[2]; log2[MNC+1]: hTROP2 >14, SLFN11 >11.5, 5 patients
  Proportion of patients showing a maximum tumor change rate of 0% or less: 80%
[2]; log2[MNC+1]: hTROP2 >14, SLFN11 >12.5, 2 patients
  Proportion of patients showing a maximum tumor change rate of 0% or less: 100%
[2]; log2[MNC+1]: hTROP2 >14, SLFN11 All, 5 patients
  Proportion of patients showing a maximum tumor change rate of 0% or less: 80%
[2]; log2[MNC+1]: hTROP2 All, SLFN11 >11.5, 11 patients
  Proportion of patients showing a maximum tumor change rate of 0% or less: 82%
[2]; log2[MNC+1]: hTROP2 All, SLFN11 >12.5, 5 patients
  Proportion of patients showing a maximum tumor change rate of 0% or less: 100%
[2]; log2[MNC+1]: hTROP2 All, SLFN11 All, 12 patients
  Proportion of patients showing a maximum tumor change rate of 0% or less: 75%
